For this series, the system named is Escherichia coli TOP10. Nature of the series: shrunken log2 fold change of peptide-encoding DNA abundance (4.5 h post-induction vs induction); higher = less antimicrobial activity (less host growth inhibition). Particulars: time post-induction: 4.5 h; library: site-saturation at positions 5, 18, 19, 20.
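Also: peptides expressed intracellularly from a pBAD plasmid library in pooled LB shake-flask culture, induced with 0.3% L-arabinose, DNA abundance read by NGS, three biological replicates, DESeq2 with apeglm shrinkage.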

RRIRTRPPRLPRPRPRPCVRPRP: the “shrunken log2 fold change” value was determined as 0.116.

As for RRIRSRPPRLPRPRPRPDAPPRP, the “shrunken log2 fold change” value is 0.49.

In the case of RRIRNRPPRLPRPRPRPCFCPRP, the “shrunken log2 fold change” value was -0.337.

With RRIRDRPPRLPRPRPRPYMNPRP, the “shrunken log2 fold change” value was -0.665.

Turning to RRIRHRPPRLPRPRPRPHAAPRP, the “shrunken log2 fold change” value worked out at 0.292.

As to RRIRRRPPRLPRPRPRPYVFPRP, the “shrunken log2 fold change” value is -0.623.

As for RRIRQRPPRLPRPRPRPFIRPRP, the “shrunken log2 fold change” value was -0.00448.

As for RRIRTRPPRLPRPRPRPYGAPRP, the “shrunken log2 fold change” value was -0.0628.

Regarding RRIRLRPPRLPRPRPRPNYIPRP, the “shrunken log2 fold change” value is -0.301.

For RRIRLRPPRLPRPRPRPNWCPRP, the “shrunken log2 fold change” value was found to be 0.374.

Take RRIRNRPPRLPRPRPRPPPQPRP: the “shrunken log2 fold change” value is 0.931.

For RRIRDRPPRLPRPRPRPEAYPRP, the “shrunken log2 fold change” value is -0.0102.

For the sequence RRIRMRPPRLPRPRPRPYWKPRP, the “shrunken log2 fold change” value was found to be 0.0275.

On to RRIRDRPPRLPRPRPRPKMFPRP, for which the “shrunken log2 fold change” value was determined as 0.00408.

In the case of RRIRQRPPRLPRPRPRPKCKPRP, the “shrunken log2 fold change” value is 0.0386.

As for RRIRPRPPRLPRPRPRPDEQPRP, the “shrunken log2 fold change” value is 0.318.

As to RRIRMRPPRLPRPRPRPDPYPRP, the “shrunken log2 fold change” value was -0.0396.

Take RRIRVRPPRLPRPRPRPNGNPRP: the “shrunken log2 fold change” value is -0.323.

On to RRIRMRPPRLPRPRPRPTHHPRP, for which the “shrunken log2 fold change” value worked out at 0.316.

Regarding RRIRVRPPRLPRPRPRPKERPRP, the “shrunken log2 fold change” value was 0.0774.

On to RRIRVRPPRLPRPRPRPQQYPRP, for which the “shrunken log2 fold change” value is -0.258.

Regarding RRIRDRPPRLPRPRPRPRHQPRP, the “shrunken log2 fold change” value is 0.0533.

Turning to RRIRGRPPRLPRPRPRPSSKPRP, the “shrunken log2 fold change” value amounted to 0.0383.

Consider RRIRTRPPRLPRPRPRPKAMPRP, for which the “shrunken log2 fold change” value is 0.0836.

For RRIRQRPPRLPRPRPRPDTMPRP, the “shrunken log2 fold change” value was 0.0515.

Take RRIRFRPPRLPRPRPRPHHAPRP: the “shrunken log2 fold change” value is -0.291.

Take RRIRNRPPRLPRPRPRPIVAPRP: the “shrunken log2 fold change” value was -0.367.

Regarding RRIRNRPPRLPRPRPRPPTFPRP, the “shrunken log2 fold change” value stood at 0.145.

For RRIRNRPPRLPRPRPRPGMAPRP, the “shrunken log2 fold change” value was determined as 0.0313.

For the sequence RRIRNRPPRLPRPRPRPEKNPRP, the “shrunken log2 fold change” value was 0.907.

For the sequence RRIRHRPPRLPRPRPRPLPCPRP, the “shrunken log2 fold change” value was -0.0645.

For RRIRVRPPRLPRPRPRPHHRPRP, the “shrunken log2 fold change” value worked out at 3.34.

In the case of RRIRFRPPRLPRPRPRPVSYPRP, the “shrunken log2 fold change” value amounted to 0.0168.

Regarding RRIRIRPPRLPRPRPRPFDCPRP, the “shrunken log2 fold change” value was -0.0028.

As for RRIRPRPPRLPRPRPRPNAGPRP, the “shrunken log2 fold change” value stood at 0.0847.

As to RRIRVRPPRLPRPRPRPIWHPRP, the “shrunken log2 fold change” value was -0.164.

On to RRIRCRPPRLPRPRPRPTYSPRP, for which the “shrunken log2 fold change” value was -1.01.

For the sequence RRIRVRPPRLPRPRPRPDLNPRP, the “shrunken log2 fold change” value was -0.233.

RRIRARPPRLPRPRPRPCSFPRP: the “shrunken log2 fold change” value worked out at 0.134.

Regarding RRIRYRPPRLPRPRPRPHRKPRP, the “shrunken log2 fold change” value was -0.501.

For the sequence RRIRERPPRLPRPRPRPPGMPRP, the “shrunken log2 fold change” value came to 0.0408.

Consider RRIRARPPRLPRPRPRPEGEPRP, for which the “shrunken log2 fold change” value was 1.39.

For the sequence RRIRCRPPRLPRPRPRPHYFPRP, the “shrunken log2 fold change” value is -0.324.

As to RRIRDRPPRLPRPRPRPWIYPRP, the “shrunken log2 fold change” value is -0.304.

Turning to RRIRFRPPRLPRPRPRPWVNPRP, the “shrunken log2 fold change” value is -0.753.

For the sequence RRIRCRPPRLPRPRPRPGAEPRP, the “shrunken log2 fold change” value was 0.239.

In the case of RRIRCRPPRLPRPRPRPIRIPRP, the “shrunken log2 fold change” value was determined as 0.0952.

Take RRIRWRPPRLPRPRPRPPYDPRP: the “shrunken log2 fold change” value was -0.0917.

Regarding RRIRDRPPRLPRPRPRPAAHPRP, the “shrunken log2 fold change” value was found to be 0.66.

Turning to RRIRHRPPRLPRPRPRPARFPRP, the “shrunken log2 fold change” value was 0.358.

As to RRIRNRPPRLPRPRPRPLIWPRP, the “shrunken log2 fold change” value worked out at 0.0774.

As to RRIRLRPPRLPRPRPRPGPCPRP, the “shrunken log2 fold change” value is 0.121.

With RRIRVRPPRLPRPRPRPIGLPRP, the “shrunken log2 fold change” value is -0.0479.

For the sequence RRIRNRPPRLPRPRPRPHWRPRP, the “shrunken log2 fold change” value was 0.201.

On to RRIRFRPPRLPRPRPRPIYWPRP, for which the “shrunken log2 fold change” value was determined as 0.0843.

Turning to RRIRSRPPRLPRPRPRPKGDPRP, the “shrunken log2 fold change” value is -0.011.

As for RRIRMRPPRLPRPRPRPICFPRP, the “shrunken log2 fold change” value worked out at 0.149.

Take RRIRTRPPRLPRPRPRPRWMPRP: the “shrunken log2 fold change” value came to 0.0454.

As to RRIRYRPPRLPRPRPRPCFYPRP, the “shrunken log2 fold change” value is -0.909.

As to RRIRRRPPRLPRPRPRPWHCPRP, the “shrunken log2 fold change” value was -0.18.

Consider RRIRPRPPRLPRPRPRPPEPPRP, for which the “shrunken log2 fold change” value was 0.787.

For RRIRNRPPRLPRPRPRPTMIPRP, the “shrunken log2 fold change” value was -0.387.

With RRIRGRPPRLPRPRPRPNSLPRP, the “shrunken log2 fold change” value amounted to 0.271.

Turning to RRIRFRPPRLPRPRPRPPTPPRP, the “shrunken log2 fold change” value was determined as 0.908.

For the sequence RRIRSRPPRLPRPRPRPHGIPRP, the “shrunken log2 fold change” value was -0.273.

As to RRIRSRPPRLPRPRPRPGKTPRP, the “shrunken log2 fold change” value is -0.112.

For the sequence RRIRWRPPRLPRPRPRPNWVPRP, the “shrunken log2 fold change” value came to 0.0816.

Regarding RRIRQRPPRLPRPRPRPMNWPRP, the “shrunken log2 fold change” value is -0.0581.

On to RRIRRRPPRLPRPRPRPILYPRP, for which the “shrunken log2 fold change” value is 0.143.

For the sequence RRIRVRPPRLPRPRPRPGNCPRP, the “shrunken log2 fold change” value was determined as 0.0986.

Regarding RRIRIRPPRLPRPRPRPLVFPRP, the “shrunken log2 fold change” value was -0.348.

As to RRIRMRPPRLPRPRPRPWCFPRP, the “shrunken log2 fold change” value was -0.144.

RRIRKRPPRLPRPRPRPHYKPRP: the “shrunken log2 fold change” value was -0.446.

RRIRGRPPRLPRPRPRPHPEPRP: the “shrunken log2 fold change” value was determined as 0.513.

For RRIRVRPPRLPRPRPRPWFDPRP, the “shrunken log2 fold change” value was -0.439.

Take RRIRMRPPRLPRPRPRPLCGPRP: the “shrunken log2 fold change” value is 0.606.

As for RRIRARPPRLPRPRPRPNYLPRP, the “shrunken log2 fold change” value was found to be 0.00106.

RRIRRRPPRLPRPRPRPCCYPRP: the “shrunken log2 fold change” value was 0.0352.

As to RRIRYRPPRLPRPRPRPVGKPRP, the “shrunken log2 fold change” value is -1.51.

With RRIRQRPPRLPRPRPRPFCRPRP, the “shrunken log2 fold change” value was -0.0325.

Turning to RRIRDRPPRLPRPRPRPPGGPRP, the “shrunken log2 fold change” value came to 1.07.

On to RRIRCRPPRLPRPRPRPACAPRP, for which the “shrunken log2 fold change” value was determined as 0.433.

Turning to RRIRSRPPRLPRPRPRPYEIPRP, the “shrunken log2 fold change” value was -0.0474.

For the sequence RRIRERPPRLPRPRPRPHIFPRP, the “shrunken log2 fold change” value worked out at 0.116.

With RRIRGRPPRLPRPRPRPQPVPRP, the “shrunken log2 fold change” value amounted to 0.285.

In the case of RRIRDRPPRLPRPRPRPVMCPRP, the “shrunken log2 fold change” value came out at 0.156.

With RRIRVRPPRLPRPRPRPIGGPRP, the “shrunken log2 fold change” value was 0.801.

Turning to RRIRWRPPRLPRPRPRPWVLPRP, the “shrunken log2 fold change” value was 0.287.

In the case of RRIRNRPPRLPRPRPRPVVKPRP, the “shrunken log2 fold change” value came to 0.0106.

As for RRIRHRPPRLPRPRPRPDNDPRP, the “shrunken log2 fold change” value turned out to be 0.00849.

Regarding RRIRSRPPRLPRPRPRPLDYPRP, the “shrunken log2 fold change” value was -0.194.

The values above are taken from the supplement of paper PMC9112550, “Optimization of the antimicrobial peptide Bac7 by deep mutational scanning” (BMC Biology, 2022).
